Results as given in US20220324996A1 (published 2022).

Legend:
human SIRP-α v1 = target: T1, human SIRP-α v1 (human, UniProt P78324 31-149); assay: SPR
T1 construct: Soluble SIRP analyte in SPR; also called hSIRPa v1; Human V1
Description: The interactions of anti-SIRPα antibodies with SIRPα from various species (human v1, human v2, cynomolgus, mouse 129, BL6, BALBc, NOD), SIRPβ and SIRPγ were analyzed using two methods, direct immobilization of the antibodies (via GLC chip) or capture via biotinylated Protein A (via NLC chip), according to the following protocols. All experiments were performed at 25° C. using a SPR-based ProteOn XPR36 biosensor (BioRad. Inc, Hercules, Calif.) equipped with GLC or NLC sensor chips. […] Purification was carried out by standard Protein A affinity column chromatography and eluted antibodies were stored in PBS buffer.

human SIRP-γ = target: T2, human SIRP-γ (human, UniProt Q9P1W8 29-147); assay: SPR
T2 construct: Soluble SIRP analyte in SPR; also called hSIRPg; SIRPg
T2 sequence (Q9P1W8 29-147 limits assumed): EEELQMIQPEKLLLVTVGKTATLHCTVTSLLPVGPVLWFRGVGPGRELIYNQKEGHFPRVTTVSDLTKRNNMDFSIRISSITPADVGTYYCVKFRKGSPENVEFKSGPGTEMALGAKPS

T1 sequence (P78324 31-149 limits assumed): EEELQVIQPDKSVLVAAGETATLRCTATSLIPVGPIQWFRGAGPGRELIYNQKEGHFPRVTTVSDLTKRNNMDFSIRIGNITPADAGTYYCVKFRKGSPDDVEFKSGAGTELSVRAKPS

B1: Hum1/AB21_HC_Mutall (antibody, V domains shown)
VH: EVQLVESGGGVVQPGGSLRLSCAASGFTFSSNAMSWVRQAPGKGLEWVAGISAGGSDTYYPASVKGRFTISRDNSKNTLYLQMNSLRAEDTAVYYCARETWNHLFDYWGQGTLVTVSS
VL: SYELTQPPSVSVSPGQTARITCSGGSYSSYYYAWYQQKPGQAPVTLIYSDDKRPSNIPERFSGSSSGTTVTLTISGVQAEDEADYYCGGYDQSSYTNPFGGGTKLTVL
notes: also called Hum1/AB21mutall
In the case of B1, the Kd (human SIRP-α v1) is reported as ≤ 10 pM and the Kd (human SIRP-γ) is reported as > 1 pM.
